From US7588931B2, “High arachidonic acid producing strains of Yarrowia lipolytica” (E. I. du Pont de Nemours and Company, priority 2004, dated 2009)

B1: GPD: Y. lipolytica glyceraldehyde-3-phosphate dehydrogenase promoter, SEQ ID NO:158 (nucleic acid, listed as Yarrowia lipolytica)
DNA: GACGCAGTAGGATGTCCTGCACGGGTCTTTTTGTGGGGTGTGGAGAAAGGGGTGCTTGGAGATGGAAGCCGGTAGAACCGGGCTGCTTGTGCTTGGAGATGGAAGCCGGTAGAACCGGGCTGCTTGGGGGGATTTGGGGCCGCTGGGCTCCAAAGAGGGGTAGGCATTTCGTTGGGGTTACGTAATTGCGGCATTTGGGTCCTGCGCGCATGTCCCATTGGTCAGAATTAGTCCGGATAGGAGACTTATCAGCCAATCACAGCGCCGGATCCACCTGTAGGTTGGGTTGGGTGGGAGCACCCCTCCACAGAGTAGAGTCAAACAGCAGCAGCAACATGATAGTTGGGGGTGTGCGTGTTAAAGGAAAAAAAAGAAGCTTGGGTTATATTCCCGCTCTATTTAGAGGTTGCGGGATAGACGCCGACGGAGGGCAATGGCGCCATGGAACCTTGCGGATATCGATACGCCGCGGCGGACTGCGTCCGAACCAGCTCCAGCAGCGTTTTTTCCGGGCCATTGAGCCGACTGCGACCCCGCCAACGTGTCTTGGCCCACGCACTCATGTCATGTTGGTGTTGGGAGGCCACTTTTTAAGTAGCACAAGGCACCTAGCTCGCAGCAAGGTGTCCGAACCAAAGAAGCGGCTGCAGTGGTGCAAACGGGGCGGAAACGGCGGGAAAAAGCCACGGGGGCACGAATTGAGGCACGCCCTCGAATTTGAGACGAGTCACGGCCCCATTCGCCCGCGCAATGGCTCGCCAACGCCCGGTCTTTTGCACCACATCAGGTTACCCCAAGCCAAACCTTTGTGTTAAAAAGCTTAACATATTATACCGAACGTAGGTTTGGGCGGGCTTGCTCCGTCTGTCCAAGGCAACATTTATATAAGGGTCTGCATCGCCGGCTCAATTGAATCTTTTTTCTTCTTCTCTTCTCTATATTCATTCTTGAATTAAACACACATCAACATG
modifications: misc_feature: Promoter GPD
B2: GPDIN: glyceraldehyde-3-phosphate dehydrogenase + intron promoter, SEQ ID NO:159 (nucleic acid, listed as Yarrowia lipolytica)
DNA: AAACACGCAGTAGGATGTCCTGCACGGGTCTTTTTGTGGGGTGTGGAGAAAGGGGTGCTTGGAGATGGAAGCCGGTAGAACCGGGCTGCTTGTGCTTGGAGATGGAAGCCGGTAGAACCGGGCTGCTTGGGGGGATTTGGGGCCGCTGGGCTCCAAAGAGGGGTAGGCATTTCGTTGGGGTTACGTAATTGCGGCATTTGGGTCCTGCGCGCATGTCCCATTGGTCAGAATTAGTCCGGATAGGAGACTTATCAGCCAATCACAGCGCCGGATCCACCTGTAGGTTGGGTTGGGTGGGAGCACCCCTCCACAGAGTAGAGTCAAACAGCAGCAGCAACATGATAGTTGGGGGTGTGCGTGTTAAAGGAAAAAAAAGAAGCTTGGGTTATATTCCCGCTCTATTTAGAGGTTGCGGGATAGACGCCGACGGAGGGCAATGGCGCTATGGAACCTTGCGGATATCCATACGCCGCGGCGGACTGCGTCCGAACCAGCTCCAGCAGCGTTTTTTCCGGGCCATTGAGCCGACTGCGACCCCGCCAACGTGTCTTGGCCCACGCACTCATGTCATGTTGGTGTTGGGAGGCCACTTTTTAAGTAGCACAAGGCACCTAGCTCGCAGCAAGGTGTCCGAACCAAAGAAGCGGCTGCAGTGGTGCAAACGGGGCGGAAACGGCGGGAAAAAGCCACGGGGGCACGAATTGAGGCACGCCCTCGAATTTGAGACGAGTCACGGCCCCATTCGCCCGCGCAATGGCTCGCCAACGCCCGGTCTTTTGCACCACATCAGGTTACCCCAAGCCAAACCTTTGTGTTAAAAAGCTTAACATATTATACCGAACGTAGGTTTGGGCGGGCTTGCTCCGTCTGTCCAAGGCAACATTTATATAAGGGTCTGCATCGCCGGCTCAATTGAATCTTTTTTCTTCTTCTCTTCTCTATATTCATTCTTGAATTAAACACACATCAACATGGCCATCAAAGTCGGTATTAACGGATTCGGGCGAATCGGACGAATTGTGAGTACCATAGAAGGTGATGGAAACATGACCCAACAGAAACAGATGACAAGTGTCATCGACCCACCAGAGCCCAATTGAGCTCATACTAACAGTCGACAACCTGTCGAACCAATTGATGACTCCCCGACAATGTACTAACACAGGTCCTGCCC
modifications: misc_feature: Promoter GPDIN

Columns and labels:
Format in all cases: cell-based, Yarrowia lipolytica
[1] = system: β-glucuronidase (GUS) reporter; assay: Relative promoter activity rank from comparative GUS reporter studies (histochemical, fluorometric and/or Real Time PCR); settings: relative to other promoters
Experimental: The activity of GPM is about the same as TEF, while the activity of GPD, FBA, FBAIN, FBAINm, GPDIN, GPAT, YAT1 and EXP1 are all greater than TEF (activity is quantified in a relative manner in the column titled “Activity Rank”, wherein a ‘1’ corresponds to the promoter with lowest activity, while a ‘7’ corresponds to the promoter with highest activity). […] GUS activity in each expressed construct was measured by histochemical and/or fluorometric assays (Jefferson, R. A. Plant Mol. Biol. Reporter 5:387-405 (1987)) and/or by use of Real Time PCR.

[2] = system: β-glucuronidase (GUS) reporter; assay: Comparative analysis of promoters by histochemical analysis of GUS expression; settings: ATCC #76982 strains, MM, FIG. 5B
Experimental: Comparative studies investigating the promoter activities of the TEF, GPD, GPDIN, GPM, GPAT, FBA, FBAIN and YAT1 promoters were performed, by synthesizing constructs comprising each promoter and the E. coli gene encoding β-glucuronidase (GUS) as a reporter gene (Jefferson, R. A. Nature. 14(342):837-838 (1989)). Then, GUS activity was measured by histochemical and fluorometric assays (Jefferson, R. A. Plant Mol. Biol. Reporter 5:387-405 (1987)) and/or by using Real Time PCR for mRNA quantitation.
Yarrowia lipolytica ATCC #76982 strains containing plasmids pY5-30, pYZGDG, pYZGMG, pDMW212 and pDMW214 were grown from single colonies in 3 mL MM at 30° C. to an OD600˜1.0. Then, 100 μl of cells were collected by centrifugation, resuspended in 100 μl of histochemical staining buffer, and incubated at 30° C. Staining buffer was prepared by dissolving 5 mg of 5-bromo-4-chloro-3-indolyl glucuronide (X-Gluc) in 50 μl dimethyl formamide, followed by the addition of 5 mL 50 mM NaPO4, pH 7.0.
In a separate experiment, Y. lipolytica Y2034 strains containing plasmids pY5-30, pYGPAT-GUS, pYAT-GUS and pDMW214 were grown from single colonies in 5 mL SD media at 30° C. for 24 hrs to an OD600˜8.0. Then, 1 mL of cells were collected by centrifugation. The remaining cultures were centrifuged and washed 2× with HGM, resuspended in 5 mL each of HGM and allowed to grow at 30° C. further. After 24 and 120 hrs, ˜0.25 mL of each culture were centrifuged to collect the cells. Cell samples were resuspended individually in 100 μl of histochemical staining buffer (supra). Zymolase 20T (5 μl of 1 mg/mL; ICN Biomedicals, Costa Mesa, Calif.) was added to each, and the mixture incubated at 30° C. […]

GUS mRNA = assay: Comparative analysis of promoters by quantitative (Real Time) PCR of GUS mRNA; settings: for transcription activity relative to the TEF promoter: after 24 hrs in HGM, ATCC #76982 strains
Experimental: The transcriptional activities of the TEF, GPD, GPDIN, FBA and FBAIN promoters were determined in Y. lipolytica containing the pY5-30, PYZGDG, pDMW222, pDMW212 and pDMW214 constructs by quantitative PCR analyses. This required isolation of RNA and real time RT-PCR.
More specifically, Y. lipolytica ATCC #76982 strains containing pY5-30, PYZGDG, pDMW222, pDMW212 and pDMW214 were grown from single colonies in 6 mL of MM in 25 mL Erlenmeyer flasks for 16 hrs at 30° C. Each of the 6 mL starter cultures was then added to individual 500 mL flasks containing 140 mL HGM and incubated at 30° C. for 4 days. In each interval of 24 hrs, 1 mL of each culture was removed from each flask to measure the optical density, 27 mL was removed and used for a fluorometric GUS assay (as described above), and two aliquots of 1.5 mL were removed for RNA isolation. The culture for RNA isolation was centrifuged to produce a cell pellet.
The RNA was isolated from Yarrowia strains according to the modified Qiagen RNeasy mini protocol (Qiagen, San Diego, Calif.). Briefly, at each time point for each sample, 340 μL of Qiagen's buffer RLT was used to resuspend each of the two cell pellets. The buffer RLT/cell suspension mixture from each of the two tubes was combined in a bead beating tube (Bio101, San Diego, Calif.). About 500 μL of […] glass beads was added to the tube and the cells were disrupted by bead beating 2 min at setting 5 (BioPulverizer, Bio101 Company, San Diego, Calif.). The disrupted cells were then pelleted by centrifugation at 14,000 rpm for 1 min and 350 μl of the supernatent was transferred to a new microcentrifuge tube. Ethanol (350 μL of 70%) was added to each homogenized lysate. After gentle mixing, the entire sample was added to a RNeasy mini column in a 2 mL collection tube. The sample was centrifuged for 15 sec at 10,000 rpm. Buffer RW1 (350 μL) was added to the RNeasy mini column and the column was centrifuged for 15 sec at 10,000 rpm to wash the cells. The eluate was discarded. Qiagen's DNasel stock solution (10 μL) was added to 70 μl of Buffer RDD and gently mixed. This entire DNase solution was added to the RNeasy mini column and incubated at room temperature for 15 min. After the incubation step, 350 μL of Buffer RW1 was added to the mini column and the column was centrifuged for 15 sec at 10,000 rpm. The column was washed twice with 700 μL […]. RNase-free water (50 μL) was added to the column. The column was centrifuged for 1 min at 10,000 rpm to elute the RNA.
A two-step RT-PCR protocol was used, wherein total Yarrowia RNA was first converted to cDNA and then cDNA was analyzed using Real Time PCR. The conversion to cDNA was performed using Applied Biosystems' High Capacity cDNA Archive Kit (PN#4322171; Foster City, Calif.) and Molecular Biology Grade water from MediaTech, Inc. (PN# 46-000-Con; Holly Hill, Fla.). Total RNA from Yarrowia (100 ng) was converted to cDNA by combining it with 10 μl of RT buffer, 4 μl of 25×dNTPs, 10 μl 10× Random Hexamer primers, 5 μl Multiscribe Reverse Transcriptase and 0.005 μl RNase Inhibitor, and brought to a total reaction volume of 100 μl with water. The reactions were incubated in a thermocycler for 10 min at 25° C. followed by 2 hrs at 37° C. The cDNA was stored at −20° C. prior to Real Time analysis.
Real Time analysis was performed using the SYBR Green PCR Master Mix from Applied Biosystems (PN# 4309155). The Reverse Transcription reaction (2 μl) was added to 10 μl of 2×SYBR PCR Mix, 0.2 μl of 100 μM Forward and Reverse primers for either URA (i.e., primers YL-URA-16F and YL-URA-78R [SEQ ID NOs:183 and 184]) or GUS (i.e., primers GUS-767F and GUS-891R [SEQ ID NO:185 and 186]) and 7.2 μl water. The reactions were thermocycled for 10 min at 95° C. followed by 40 cycles of 95° C. for 5 sec and 60° C. for 1 min in an ABI 7900 Sequence Detection System instrument. Real time fluorescence data was collected during the 60° C. extension during each cycle. […]

Row | Molecule | Activity “Rank” [1] | promoter activity by histochemical staining [2] | transcription activity relative to the TEF promoter (GUS mRNA) | transcriptional activity relative to the TEF promoter (GUS mRNA; final day of the 4 day experiment in HGM) [times]
1 | B1 | 2 | active | about 2 times | 
2 | B2 | 3 |  | ~4.4 times | ~2.6
